From patent US20230250158A1

Tests used:
[1] = target: SARS-CoV-2 Spike S2-hFc (SARS-CoV-2), P0DTC2; assay: Octet, Fab as analyte over S2-hFc on AHC sensor; conditions: remark: other sources report otherwise
[2] = target: SARS-CoV-2 Spike S2-hFc (SARS-CoV-2), P0DTC2; assay: Octet BLI; Fab as analyte over S2-hFc on AHC sensors; steady-state analysis; conditions: remark: other sources report otherwise

B1: 2-A6 Fab (Fab, V domains shown)
VH: QVTLRESGPALVKPTQTLTLTCTFSGFSLNTRGMSVSWIRQPPGKALEWLALIDWEDDKFYRTSLMTRLTISKDIFKNQVVLTMTNVDPVDTGTYYCARTYSVGVKYFGMDVWGQGTTVTVSS
VL: SSELTQDPAVSVALGQTVRITCQGDSLRNYYASWYRQEPGQAPILLIYGGNYRPSGIPDRFSGSSSGNTASLTITGAQAEDEADYYCNSRDSSGNHVVFGGGTKLTVL
[1]
  Kd: 900 nM
[2]
  Kd: 913 nM
